Results taken from article PMC2775898 (The EMBO Journal, 2009).
Where no end group is shown, it is not given here. The star is where a group is joined. Biotin = O=C1N[C@H]2[C@H](CS[C@H]2CCCCC(=O)*)N1

Columns and labels:
[1] = target: T1, Tiam2 PHCCEx domain (PH-CC-Ex region, residues 500-757) (mouse, UniProt Q6ZPF3 500-757); experiment: SPR
T1 sequence (looked up): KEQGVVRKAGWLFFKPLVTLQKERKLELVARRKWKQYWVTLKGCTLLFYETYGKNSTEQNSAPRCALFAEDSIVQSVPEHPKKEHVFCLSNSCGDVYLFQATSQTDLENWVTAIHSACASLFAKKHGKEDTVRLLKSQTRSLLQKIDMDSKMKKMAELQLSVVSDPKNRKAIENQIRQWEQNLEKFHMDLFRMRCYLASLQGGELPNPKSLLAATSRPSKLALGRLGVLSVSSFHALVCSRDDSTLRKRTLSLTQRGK

[2] = target: T2, Tiam1 PHCCEx domain (PH-CC-Ex region, residues 429-702) (mouse, UniProt Q60610 429-702); experiment: SPR
T2 sequence (looked up): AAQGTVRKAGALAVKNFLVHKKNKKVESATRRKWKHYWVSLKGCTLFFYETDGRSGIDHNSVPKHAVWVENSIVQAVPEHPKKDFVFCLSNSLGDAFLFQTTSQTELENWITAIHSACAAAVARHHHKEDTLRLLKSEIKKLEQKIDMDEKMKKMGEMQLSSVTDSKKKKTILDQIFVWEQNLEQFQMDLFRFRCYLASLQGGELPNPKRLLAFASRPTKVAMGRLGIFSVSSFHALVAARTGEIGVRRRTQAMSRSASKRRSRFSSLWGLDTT

[3] = target: T3, Tiam2 PHCCEx domain, alanine mutant Arg693 (R693A) (mouse, UniProt Q6ZPF3 500-757, R693A); experiment: SPR
T3 sequence (looked up): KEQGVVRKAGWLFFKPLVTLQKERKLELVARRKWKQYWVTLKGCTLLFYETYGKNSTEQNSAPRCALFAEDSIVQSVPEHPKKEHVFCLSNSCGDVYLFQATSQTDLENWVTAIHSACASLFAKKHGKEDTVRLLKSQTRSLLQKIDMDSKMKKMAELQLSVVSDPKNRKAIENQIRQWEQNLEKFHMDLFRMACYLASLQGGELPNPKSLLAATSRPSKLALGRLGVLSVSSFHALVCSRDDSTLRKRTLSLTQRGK

[4] = target: T4, Tiam2 PHCCEx domain, alanine mutant Arg691 (mouse, UniProt Q6ZPF3 500-757, alanine mutant Arg691); experiment: SPR
T4 sequence (looked up): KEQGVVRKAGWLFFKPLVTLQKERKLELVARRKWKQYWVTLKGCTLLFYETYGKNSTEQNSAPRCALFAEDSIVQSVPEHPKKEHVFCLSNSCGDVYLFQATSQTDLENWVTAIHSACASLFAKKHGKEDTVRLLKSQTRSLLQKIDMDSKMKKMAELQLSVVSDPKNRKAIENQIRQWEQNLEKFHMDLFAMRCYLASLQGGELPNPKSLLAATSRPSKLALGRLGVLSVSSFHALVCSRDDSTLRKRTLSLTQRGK

[5] = target: T5, Tiam2 PHCCEx domain, alanine mutant Lys627 (mouse, UniProt Q6ZPF3 500-757, alanine mutant Lys627); experiment: SPR
T5 sequence (looked up): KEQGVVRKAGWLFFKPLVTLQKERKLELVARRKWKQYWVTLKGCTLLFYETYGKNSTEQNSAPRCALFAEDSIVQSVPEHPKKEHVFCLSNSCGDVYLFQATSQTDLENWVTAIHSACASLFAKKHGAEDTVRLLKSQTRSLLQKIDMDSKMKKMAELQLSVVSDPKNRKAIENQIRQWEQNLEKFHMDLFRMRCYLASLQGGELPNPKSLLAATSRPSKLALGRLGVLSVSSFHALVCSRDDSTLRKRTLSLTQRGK

[6] = target: T6, Tiam2 PHCCEx domain, alanine mutant Lys624 (mouse, UniProt Q6ZPF3 500-757, alanine mutant Lys624); experiment: SPR
T6 sequence (looked up): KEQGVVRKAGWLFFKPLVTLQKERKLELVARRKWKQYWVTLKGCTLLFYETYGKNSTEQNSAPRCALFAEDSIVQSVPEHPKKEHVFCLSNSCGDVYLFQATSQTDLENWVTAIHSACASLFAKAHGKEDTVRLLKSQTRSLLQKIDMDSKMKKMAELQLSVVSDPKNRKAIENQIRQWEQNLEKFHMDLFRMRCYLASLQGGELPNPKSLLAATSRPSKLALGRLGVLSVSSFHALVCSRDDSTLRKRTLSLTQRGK

[7] = target: T7, Tiam2 PHCCEx domain, alanine mutant Arg632 (mouse, UniProt Q6ZPF3 500-757, alanine mutant Arg632); experiment: SPR
T7 sequence (looked up): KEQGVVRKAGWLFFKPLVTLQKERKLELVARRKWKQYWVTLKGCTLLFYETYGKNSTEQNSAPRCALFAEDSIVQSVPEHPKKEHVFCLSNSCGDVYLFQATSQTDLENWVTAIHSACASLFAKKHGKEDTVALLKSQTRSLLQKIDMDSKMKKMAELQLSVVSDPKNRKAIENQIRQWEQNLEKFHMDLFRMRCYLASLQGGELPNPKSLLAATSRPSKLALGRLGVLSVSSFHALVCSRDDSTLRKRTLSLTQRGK

[8] = target: T8, Tiam2 PHCCEx domain, alanine mutant Lys650 (mouse, UniProt Q6ZPF3 500-757, alanine mutant Lys650); experiment: SPR
T8 sequence (looked up): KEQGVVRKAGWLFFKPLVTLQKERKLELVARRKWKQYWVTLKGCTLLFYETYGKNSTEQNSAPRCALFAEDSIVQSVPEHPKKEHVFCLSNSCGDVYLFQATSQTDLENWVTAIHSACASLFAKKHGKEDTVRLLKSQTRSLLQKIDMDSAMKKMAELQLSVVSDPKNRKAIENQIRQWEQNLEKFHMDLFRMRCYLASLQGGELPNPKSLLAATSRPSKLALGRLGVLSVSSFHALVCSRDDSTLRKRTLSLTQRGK

[9] = target: T9, Tiam2 PHCCEx domain, alanine mutant Lys653 (mouse, UniProt Q6ZPF3 500-757, alanine mutant Lys653); experiment: SPR
T9 sequence (looked up): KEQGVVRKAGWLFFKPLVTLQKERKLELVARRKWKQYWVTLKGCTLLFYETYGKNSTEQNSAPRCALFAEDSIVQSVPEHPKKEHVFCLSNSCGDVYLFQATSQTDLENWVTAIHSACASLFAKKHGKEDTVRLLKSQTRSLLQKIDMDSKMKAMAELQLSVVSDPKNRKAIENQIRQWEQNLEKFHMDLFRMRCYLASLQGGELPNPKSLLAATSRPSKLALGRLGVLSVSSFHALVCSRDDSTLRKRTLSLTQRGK

[10] = target: T10, Tiam2 PHCCEx domain, alanine mutant Arg716 (R716A) (mouse, UniProt Q6ZPF3 500-757, R716A); experiment: SPR
T10 sequence (looked up): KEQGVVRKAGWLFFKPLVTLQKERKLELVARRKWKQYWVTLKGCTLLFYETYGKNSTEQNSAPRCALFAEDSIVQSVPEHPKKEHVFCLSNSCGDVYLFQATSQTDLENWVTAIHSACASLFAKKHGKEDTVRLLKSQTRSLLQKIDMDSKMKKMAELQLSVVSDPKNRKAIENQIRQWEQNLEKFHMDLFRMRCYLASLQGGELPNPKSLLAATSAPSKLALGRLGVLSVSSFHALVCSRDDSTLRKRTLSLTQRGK

[11] = target: GFP-tagged full-length Par3 (UniProt Q9Z340 1-1337); experiment: co-IP
Chain of GFP-tagged full-length Par3 (Q9Z340 whole entry): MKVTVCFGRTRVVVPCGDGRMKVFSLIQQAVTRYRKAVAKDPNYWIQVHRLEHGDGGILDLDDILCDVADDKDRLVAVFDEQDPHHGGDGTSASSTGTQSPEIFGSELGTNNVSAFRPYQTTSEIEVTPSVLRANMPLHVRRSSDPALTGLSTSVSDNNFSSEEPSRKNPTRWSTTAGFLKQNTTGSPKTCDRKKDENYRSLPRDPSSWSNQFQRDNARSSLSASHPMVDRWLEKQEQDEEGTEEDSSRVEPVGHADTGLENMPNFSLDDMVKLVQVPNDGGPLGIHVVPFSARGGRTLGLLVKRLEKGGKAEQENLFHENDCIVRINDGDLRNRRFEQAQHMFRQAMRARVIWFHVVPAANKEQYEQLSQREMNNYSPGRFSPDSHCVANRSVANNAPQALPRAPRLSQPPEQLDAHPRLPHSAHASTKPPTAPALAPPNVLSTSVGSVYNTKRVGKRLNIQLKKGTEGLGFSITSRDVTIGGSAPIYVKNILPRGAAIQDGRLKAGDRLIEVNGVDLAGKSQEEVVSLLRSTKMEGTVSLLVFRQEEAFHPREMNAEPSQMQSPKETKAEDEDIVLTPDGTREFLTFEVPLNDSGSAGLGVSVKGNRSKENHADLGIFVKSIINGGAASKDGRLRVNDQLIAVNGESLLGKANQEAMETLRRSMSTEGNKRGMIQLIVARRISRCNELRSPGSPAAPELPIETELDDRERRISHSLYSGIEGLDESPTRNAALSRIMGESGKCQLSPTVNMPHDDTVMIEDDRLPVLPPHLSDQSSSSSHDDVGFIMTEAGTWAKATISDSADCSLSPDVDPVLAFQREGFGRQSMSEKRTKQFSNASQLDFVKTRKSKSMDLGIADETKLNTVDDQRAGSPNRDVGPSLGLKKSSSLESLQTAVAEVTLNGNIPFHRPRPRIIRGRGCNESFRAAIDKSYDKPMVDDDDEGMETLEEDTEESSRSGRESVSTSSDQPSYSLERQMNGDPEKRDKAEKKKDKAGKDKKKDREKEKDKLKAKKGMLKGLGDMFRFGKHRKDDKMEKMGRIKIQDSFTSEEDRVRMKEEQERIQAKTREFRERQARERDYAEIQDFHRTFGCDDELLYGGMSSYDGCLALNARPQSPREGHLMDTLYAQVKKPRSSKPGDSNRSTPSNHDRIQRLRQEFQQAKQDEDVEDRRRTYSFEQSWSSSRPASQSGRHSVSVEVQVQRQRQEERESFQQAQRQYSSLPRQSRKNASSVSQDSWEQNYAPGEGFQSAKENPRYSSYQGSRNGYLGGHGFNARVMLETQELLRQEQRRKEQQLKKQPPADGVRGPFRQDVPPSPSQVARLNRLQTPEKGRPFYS

Binder: KPMVDDDDEGMETLEEDTEESSRSGRESVS (peptide, UniProt Q99NH2 931-960, looked up, biotin on the N-terminus) [Par3 acidic cluster peptide (mouse residues 931-960)]
- Kd [1]: 380 nM

Binder: Biotin-SQEMVHLVNKEPSETPDQCMTADE (peptide, UniProt P15379-2 327-350, looked up) [CD44 acidic peptide comprising 24 residues (327-350)]
- binding result [2]: binds
- Kd [1]: 920 nM
- binding result [3]: binds
- binding result [4]: binds
- binding result [5]: binds
- binding result [6]: binds
- binding result [7]: binds
- binding result [8]: binds
- binding result [9]: binds
- binding result [10]: binds

B1: HA-tagged full-length Tiam1 with a double mutation (R622A and R645A) (natural protein, UniProt Q60610 1-1591, looked up)
chain: MGNAESQNVDHEFYGEKHASLGRKHTSRSLRLSHKTRRTRHASSGKAIHRNSEVSTRSSSTPSIPQSLAENGLEPFSQEGALDDFGDPIWVDRVDMGLRPVSYTDSSVTPSVDGSIVLTAASVQSMPDSEESRLYGDDATYLAEGGRRQCPYTSNGPTFMETASFKKKRSKSADIWREDSLEFSLSDLSQEHLTSNEEILGSAEEKDCEEARGMETEASPRQLSTCQRANSLGDLYAQKNSGVKANGGPRNRFSSYCRNLVSDIPDLAKHKMPPAAAEETPPYSNYNTLPCRKSHCLSEGATNPQISLSKSMQGRRAKTTQDVNTGEGSEFADSGIEGATTDTDLLSRRSNATNSSYSPPTGRAFVGSDSGSSSTGDRARQGVYENFRRELEMSTTNSESLEEAGSAHSDEQSSGTLSSPGQSDILLTAAQGTVRKAGALAVKNFLVHKKNKKVESATRRKWKHYWVSLKGCTLFFYETDGRSGIDHNSVPKHAVWVENSIVQAVPEHPKKDFVFCLSNSLGDAFLFQTTSQTELENWITAIHSACAAAVARHHHKEDTLRLLKSEIKKLEQKIDMDEKMKKMGEMQLSSVTDSKKKKTILDQIFVWEQNLEQFQMDLFRFACYLASLQGGELPNPKRLLAFASAPTKVAMGRLGIFSVSSFHALVAARTGEIGVRRRTQAMSRSASKRRSRFSSLWGLDTTSKKKQGRPTINQVFGEGTDAVKRSLEGIFDDTVPDGKREKEVVLPSVHQHNPDCDIWVHEYFTPSWFCLPNNQPALTVVRPGDTARDTLELICKTHQLDHSAHYLRLKFLMENRVQFYIPQPEEDIYELLYKEIEICPKVTQNIHIEKSDAAADNYGFLLSSVDEDGIRRLYVNSVKETGLASKKGLKAGDEILEINNRAAGTLNSSMLKDFLSQPSLGLLVRTYPEPEGGVELLENPPHRVDGPVDLGESPLAFLTSNPGHSLSSEQGSSAETAPEEGEGPDLESSDETDHSSKSTEQVAAFCRSLHEMSPSDSSPSPQDATSPQLATTRQLSDADKLRKVICELLETERTYVKDLNCLMERYLKPLQKETFLTQDELDVLFGNLTEMVEFQVEFLKTLEDGVRLVPDLEKLEKVDQFKKVLFSLGGSFLYYADRFKLYSAFCASHTKVPKVLVKAKTDTAFKAFLDAQNPRQQHSSTLESYLIKPIQRVLKYPLLLRELFALTDAESEEHYHLDVAIKTMNKVASHINEMQKIHEEFGAVFDQLIAEQTGEKKEVADLSMGDLLLHTSVIWLNPPASLGKWKKEPELAAFVFKTAVVLVYKDGSKQKKKLVGSHRLSIYEEWDPFRFRHMIPTEALQVRALPSADAEANAVCEIVHVKSESEGRPERVFHLCCSSPESRKDFLKSVHSILRDKHRRQLLKTESLPSAQQYVPFGGKRLCALKGARPAMSRAVSAPSKSLGRRRRRLARNRFTIDSDAISASSPEKEPQQPAGGGDTDRWVEEQFDLAQYEEQDDIKETDILSDDDEFCESLKGASVDRDLQEQLQAASISQRARGRRTLDSHASRMTQLKKQAALSGINGGLESASEEVIWVRREDFAPSRKLNTEI
- Par3 binding relative to wild-type Tiam1 [11]: ~65%

B2: NMDAR loop I peptide (residues 591-610) (peptide)
peptide: not shown
modifications: biotin on the N-terminus
- binding result [2]: binds
